Source: publication PMC4669440

Tests used:
Settings in all cases: glycan lost; control: WT mice
[1] = H&E histology of long bone
[2] = TRAP staining, 6-month-old mice
[3] = X-ray radiography of long bones
[4] = three-point bending of femur and tibia
[5] = immunohistochemistry, anti-DMP1-N 9B6.3, cortical bone

B1: Dentin matrix protein 1 (DMP1): S89G (protein)
parent chain: MKTVILLVFLWGLSCALPVARYHNTESESSEERTGDLAGSPPPPTNSESSEESQASPEGQANSDHTDSSESGEELGYDRGQYRPAGGLSKSTGTGADKEDDEDDSGDDTFGDEDNDLGPEEGQWGGPSKLDSDEDSTDTTQSSEDSTSQENSAQDTPSDSKDHDSEDEADSRPEAGDSTQDSESEEQRVGGGSEGESSHGDGSEFDDEGMQSDDPESTRSDRGHARMSSAGIRSEESKGDHEPTSTQDSDDSQSVEFSSRKSFRRSHVSEEDYRGELTDSNSRETQSDSTEDTASKEESRSESQEDTAESQSQEDSPEGQDPSSESSEEAGEPSQESSSESQEGVTSESRGDNPDNTSQAGDQEDSESSEEDSLNTFSSSESQSTEEQADSESNESLSLSEESQESAQDGDSSSQEGLQSQSASTESRSQESQSEQDSRSEEDSDSQDSSRSKEESNSTGSASSSEEDIRPKNMEADSRKLIVDAYHNKPIGDQDDNDCQDGY
decreases: other: articular cartilage thickness [1] | other: osteoclast number in bone [2] | other: radiographic bone density [3] | other: bone mechanical strength [4] | expression_or_secretion [5]
